# Measurements published in the supplement of paper PMC10201428.
# ± gives the standard deviation of the averaged measurements.
# What was measured:
# [1] = tested on: VchCAST RNA-guided transposition machinery (E. coli BL21(DE3) host, lacZ target); test: relative integration efficiency (T-LR orientation) vs wild-type transposon end (log2 (normalized fold change)); transposon end mutated: right end (5 bp flank + 75 bp right end); higher = more efficient transposition
# Method in brief: (§1)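 A T7-driven effector plasmid encoding a CRISPR array, tniQ-cas8-cas7-cas6 and tnsA-tnsB-tnsC was co-transformed into E. coli BL21(DE3) together with a pUC57 mini-transposon donor holding barcoded pools of 1549 left-end or 1849 right-end variants. Transformants were plated with 0.1 mM IPTG at 37°C for 18 h. Illumina sequencing of PCR-amplified input plasmids and genomic integration junctions gave barcode abundances, and relative integration efficiency is their output/input fold change, normalised to reference barcodes and log-transformed.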
# [2] = tested on: VchCAST RNA-guided transposition machinery (E. coli BL21(DE3) host, lacZ target); test: relative integration efficiency (T-RL orientation) vs wild-type transposon end (log2 (normalized fold change)); transposon end mutated: right end (5 bp flank + 75 bp right end); higher = more efficient transposition
# Method in brief: as §1
Sequence,relative integration efficiency (log2) [1],relative integration efficiency (log2) [2]
ACATTTGTTGATACAACCATAAAATGATAATTACACCCATAAATTGATAATTATCACACCCATAAATTGATATTGCCTCTGTTGACAGCTAGCTCAGTCCTAGGTATAATGCTAGCCGCACCGACAC,0.147 ± 0.2,-0.0954 ± 0.038
ACATTTGTTGATACAACCATATATTGATATCTCCACCCATAAATTGATAATTATCAGTGGGTATTTAACTATAACGCTCTGATCATAGTCAGACCAACATTGCTACGACCCGTATTCGCACCGACAC,2.29 ± 0.021,-1.01 ± 0.15
ACATTTGTTGATACAACCATAAAATGATAATTACACCCATAAATTCATTATTATCACACCCAATTTAACTATAACGCTCTGATCATAGTCAGACCAACATTGCTACGACCCGTATTCGCACCGACAC,0.845 ± 0.28,-2.74 ± 0.49
ACATTTGTTGATACAACCATAAAGTGATATTTACAACCATAAAATGATAATTATCACAACCATATATTGATATCTCCTCTGATCATAGTCAGACCAACATTGCTACGACCCGTATTCGCACCGACAC,-0.163 ± 0.73,-0.261 ± 0.13
ACATTTGTTGATACAACCATAAAATGATAATTACTCTGATCATAGTCAGCACCCATAAATTGATAATTATCACACCCATAAATTGATATTGCACCAACATTGCTACGACCCGTATTCGCACCGACAC,-0.456 ± 0.19,-4.51 ± 0.36
ACATTTGTTGATACAACCATTAAATGATAATTACACCCATAAATTGATAATAATGACACCGAATTTAACTATAACGCTCTGATCATAGTCAGACCAACATTGCTACGACCCGTATTCGCACCGACAC,1.98 ± 0.0099,-0.985 ± 0.22
ACATTTGTTGATACACCCATAAATTGATAATTACAACCATAAGTTGATATTTTTCACAACCATATATTGATATCTCCTCTGATCATAGTCAGACCAACATTGCTACGACCCGTATTCGCACCGACAC,-0.393 ± 0.46,-0.626 ± 0.19
ACATTTGTTGATACAACCATATATTGATATCTCCAACCATAAAGTGATATTTATCACAACCATAAAATGATAATTACTCTGATCATAGTCAGACCAACATTGCTACGACCCGTATTCGCACCGACAC,-0.762 ± 0.065,-0.716 ± 0.2
ACATTTGTTGATACACCCATAAATTGATAATTACAACCATATATTGATATCTCTCACAACCATAAAATGATAATTACTCTGATCATAGTCAGACCAACATTGCTACGACCCGTATTCGCACCGACAC,-0.825 ± 0.58,-0.747 ± 0.26
ACATTTGTTGATACAACCATAAAATGATAATTACACCCATAAATTGATAATTATCACACCCATAAATTGATATTGCCTCTTCATGGTCTAAACTTCAGTCCTGGGCATCAATTTTCAGCACCGACAC,-0.163 ± 0.029,0.135 ± 0.16
ACATTTGTTGATACAACCATAAAATGATAATTAACACCCATAAATTGATAATTATCAACAAACGCCCGGTCGCGGTACTCTGATCATAGTCAGACCAACATTGCTACGACCCGTATTCGCACCGACA,1.67 ± 0.2,-0.721 ± 0.29
ACATTTGTTGATACAACCATAAAATGATCATTACACCCATAAATTGATAATTATCCCACCCCATTTAACTATAACGCTCTGATCATAGTCAGACCAACATTGCTACGACCCGTATTCGCACCGACAC,1.87 ± 0.062,-1.84 ± 0.31
ACATTTGTTGATACAACCATAAGTTGATATTTTCAACCATAAAGTGATATTTATCACAACCATATATTGATATCTCCTCTGATCATAGTCAGACCAACATTGCTACGACCCGTATTCGCACCGACAC,-0.347 ± 0.053,-0.136 ± 0.014
ACATTTGTTGATCCAACCATAAAATGATAATTACACCCATAAATGGATAATTATCACACCCAATTTAACTATAACGCTCTGATCATAGTCAGACCAACATTGCTACGACCCGTATTCGCACCGACAC,1.15 ± 0.043,-1.51 ± 0.15
ACATTAGTTGATACAACCATAAAATGATAATTACACCCATAAATTCATAATTATCACACCCAATTTAACTATAACGCTCTGATCATAGTCAGACCAACATTGCTACGACCCGTATTCGCACCGACAC,-4.45 ± 0.066,-6.87 ± 0.4
ACATTTGTTGATACAACCATAAAATGATAATTACTGGGATAAATTGATAATTATCACACCCATAAATTGATATTGCCTCTGATCATAGTCAGACCAACATTGCTACGACCCGTATTCGCACCGACAC,-0.993 ± 0.59,-0.454 ± 0.059
ACATTTGTTGATACAACCATAAAATGATAATTACAACCATAAGTTGATATTTTTCACAACCATATATTGATATCTCCTCTGATCATAGTCAGACCAACATTGCTACGACCCGTATTCGCACCGACAC,0.235 ± 0.079,-0.125 ± 0.19
ACATTTGTTGATACAACCATTAAATGGTAATTCCACCCATAAATTGATAATTATCACACCCAATTTAACTATAACGCTCTGATCATAGTCAGACCAACATTGCTACGACCCGTATTCGCACCGACAC,2.07 ± 0.25,-1.26 ± 0.19
ACATTTGTTGATACAACCATAAAGTGATATTTACAACCATATATTGATATCTCTCACAACCATAAAATGATAATTACTCTGATCATAGTCAGACCAACATTGCTACGACCCGTATTCGCACCGACAC,-0.162 ± 0.091,-0.337 ± 0.17
ACATTTGTTGATACAACCAATTTTTGATAATTACACCCAATTTATGATAATTATCACACCCAATTTATGATATTGCCTCTGATCATAGTCAGACCAACATTGCTACGACCCGTATTCGCACCGACAC,-1.18 ± 0.21,-1.89 ± 0.22
ACATTTGTTGATCCAACCATAAAATGATAATTACACCCATAAATTCATCATTATCACACCCAATTTAACTATAACGCTCTGATCATAGTCAGACCAACATTGCTACGACCCGTATTCGCACCGACAC,1.23 ± 0.14,-2.42 ± 0.5
ACATTTGTTGATACAACCATAAAATGATAATTACACCCATAAATTGATAATTATCACACCCATAAATTGATATGTAAGAGGATCATAGTCAGACCAACATTGCTACGACCCGTATTCGCACCGACAC,0.00487 ± 0.23,-0.111 ± 0.0046
ACATTTGTTGATACAACCATATATTGATATCTCCAACCATAAGTTGATATTTTTCACACCCATAAATTGATATTGCCTCTGATCATAGTCAGACCAACATTGCTACGACCCGTATTCGCACCGACAC,-0.216 ± 0.018,-0.335 ± 0.081
ACATTTGTTGATATGTTGATCAACCATAAAATGATAATTACACCCATAAATTGATAATTATCACACCCATAAATTGATATTGCCTCTGATCATAGTCAGACCAACATTGCTACGACCCGTATTCGCA,-3.71 ± 0.28,-7.04 ± 0.42
ACATTTGTTGATACAACCATAAAATGATAATTACACCCATAAATGGATCATTATCACACCCAATTTAACTATAACGCTCTGATCATAGTCAGACCAACATTGCTACGACCCGTATTCGCACCGACAC,1.07 ± 0.2,-1.63 ± 0.33
ACATTTGTCGATACAACCATAAAATGATAATTACACCCATAAATTCATAATTATCACACCCAATTTAACTATAACGCTCTGATCATAGTCAGACCAACATTGCTACGACCCGTATTCGCACCGACAC,1.2 ± 0.05,-1.92 ± 0.14
ACATTTGTTCATACAACCATAAAACGATAATTACACCCATAAATGGATCATTATCACACCCAATTTAACTATAACGCTCTGATCATAGTCAGACCAACATTGCTACGACCCGTATTCGCACCGACAC,-0.511 ± 0.011,-2.16 ± 0.3
